{
  "source": "patent US10653613B2",
  "about": "“Compositions comprising lysozyme hydrolysate for use in keratin-containing tissue” (DSM IP ASSETS B.V., priority 2013, dated 2020)",
  "key": {"[1]": {"experiment": "Clinical trial: plasma Trp/LNAA ratio kinetics after a single drink", "format": "in vivo, humans", "procedure": "(§1) Lysozyme is rich in Trp. […] A product data sheet is attached as FIG. 6. Study Procedures\n(§2) Washout periods between treatments were at least three days. […] The study was composed of four visits.\n(§3) They then ingested one of the experimental drinks.\n(§4) Fluorescence-based detection is employed.\n(§5) • For Trp and LNAA determination in the blood: Approx. […] After mixing, 2 μl was injected on the column. Statistical Considerations Descriptive Statistics\nPlasma samples from each time point have been analysed for levels of Trp and LNAA, i.e. the sum of Val, Ile, Leu, Tyr, and Phe. The resulting Trp/LNAA ratio was plotted against time post consumption of the intervention product."}, "[2]": {"conditions": "human, in vivo", "procedure": "as §1, §2, §3, §4, §5"}},
  "data": [
    {"substance": "intact lysozyme: A hen egg-derived protein rich in Trp; naturally occurring food protein that has not been altered", "values": [
      {"measurement": "Shape of the plasma Trp/LNAA ratio increase over time (in words)", "setting": "[1]; FIG. 2, comparison of the three treatments", "value": "much slower increase"},
      {"measurement": "dAUC (baseline-corrected AUC of Trp/LNAA ratios), mean", "setting": "[1]; plasma, 0-240 min after single drink, healthy volunteers, baseline AUC subtracted", "value": 7.3},
      {"measurement": "Cysteine AUC (average)", "setting": "[2]", "value": 999.7},
      {"measurement": "Cystine AUC (average)", "setting": "[2]", "value": 10726.7},
      {"measurement": "Glutathione AUC (average)", "setting": "[2]", "value": 255.7}
    ]}
  ]
}
